Experimental data as given in publication PMC6631321 (Science signaling, 2019).
Where “and” joins values, the source holds several entries; their conditions need not be identical. Equal values may be shown once. One block for each molecule: values may come before it.

Experiments:
[1] = biological target: the remaining proteins (α-actinin, afadin, band 4.1B, Scrib, and ZO-1); test: co-IP
[2] = biological target: T1, RFP-ASPP2 (UniProt Q13625 1-1128); test: pull-down
T1 sequence (looked up): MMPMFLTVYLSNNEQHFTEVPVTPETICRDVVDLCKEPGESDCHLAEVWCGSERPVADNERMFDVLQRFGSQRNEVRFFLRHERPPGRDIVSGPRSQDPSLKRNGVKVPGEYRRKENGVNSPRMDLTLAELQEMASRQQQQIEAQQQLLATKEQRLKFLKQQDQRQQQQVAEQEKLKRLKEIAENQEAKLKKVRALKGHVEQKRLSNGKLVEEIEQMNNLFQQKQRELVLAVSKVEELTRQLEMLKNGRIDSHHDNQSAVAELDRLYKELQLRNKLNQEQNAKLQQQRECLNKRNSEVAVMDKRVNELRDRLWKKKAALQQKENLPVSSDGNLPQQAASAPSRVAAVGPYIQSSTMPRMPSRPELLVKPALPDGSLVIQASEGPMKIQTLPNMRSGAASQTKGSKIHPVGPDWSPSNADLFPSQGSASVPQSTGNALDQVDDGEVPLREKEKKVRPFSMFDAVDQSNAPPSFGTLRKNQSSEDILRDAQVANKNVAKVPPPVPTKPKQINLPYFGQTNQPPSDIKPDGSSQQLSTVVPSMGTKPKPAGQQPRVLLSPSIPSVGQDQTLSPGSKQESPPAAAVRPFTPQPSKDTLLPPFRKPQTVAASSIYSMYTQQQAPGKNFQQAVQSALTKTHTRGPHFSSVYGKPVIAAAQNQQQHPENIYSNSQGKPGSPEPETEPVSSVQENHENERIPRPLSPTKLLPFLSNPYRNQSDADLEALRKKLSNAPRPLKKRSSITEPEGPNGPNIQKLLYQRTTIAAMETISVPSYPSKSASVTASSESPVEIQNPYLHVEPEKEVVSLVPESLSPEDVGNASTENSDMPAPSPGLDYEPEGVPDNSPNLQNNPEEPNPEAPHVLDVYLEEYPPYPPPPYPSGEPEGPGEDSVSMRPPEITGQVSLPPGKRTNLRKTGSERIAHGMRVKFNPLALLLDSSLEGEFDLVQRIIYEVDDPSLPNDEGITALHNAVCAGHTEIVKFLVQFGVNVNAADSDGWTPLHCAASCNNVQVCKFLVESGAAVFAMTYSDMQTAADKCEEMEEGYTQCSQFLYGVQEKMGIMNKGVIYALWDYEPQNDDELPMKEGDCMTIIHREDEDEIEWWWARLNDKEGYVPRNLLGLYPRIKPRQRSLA

[3] = biological target: T2, RFP-Lats1 (UniProt O95835 1-1130); test: pull-down
T2 sequence (looked up): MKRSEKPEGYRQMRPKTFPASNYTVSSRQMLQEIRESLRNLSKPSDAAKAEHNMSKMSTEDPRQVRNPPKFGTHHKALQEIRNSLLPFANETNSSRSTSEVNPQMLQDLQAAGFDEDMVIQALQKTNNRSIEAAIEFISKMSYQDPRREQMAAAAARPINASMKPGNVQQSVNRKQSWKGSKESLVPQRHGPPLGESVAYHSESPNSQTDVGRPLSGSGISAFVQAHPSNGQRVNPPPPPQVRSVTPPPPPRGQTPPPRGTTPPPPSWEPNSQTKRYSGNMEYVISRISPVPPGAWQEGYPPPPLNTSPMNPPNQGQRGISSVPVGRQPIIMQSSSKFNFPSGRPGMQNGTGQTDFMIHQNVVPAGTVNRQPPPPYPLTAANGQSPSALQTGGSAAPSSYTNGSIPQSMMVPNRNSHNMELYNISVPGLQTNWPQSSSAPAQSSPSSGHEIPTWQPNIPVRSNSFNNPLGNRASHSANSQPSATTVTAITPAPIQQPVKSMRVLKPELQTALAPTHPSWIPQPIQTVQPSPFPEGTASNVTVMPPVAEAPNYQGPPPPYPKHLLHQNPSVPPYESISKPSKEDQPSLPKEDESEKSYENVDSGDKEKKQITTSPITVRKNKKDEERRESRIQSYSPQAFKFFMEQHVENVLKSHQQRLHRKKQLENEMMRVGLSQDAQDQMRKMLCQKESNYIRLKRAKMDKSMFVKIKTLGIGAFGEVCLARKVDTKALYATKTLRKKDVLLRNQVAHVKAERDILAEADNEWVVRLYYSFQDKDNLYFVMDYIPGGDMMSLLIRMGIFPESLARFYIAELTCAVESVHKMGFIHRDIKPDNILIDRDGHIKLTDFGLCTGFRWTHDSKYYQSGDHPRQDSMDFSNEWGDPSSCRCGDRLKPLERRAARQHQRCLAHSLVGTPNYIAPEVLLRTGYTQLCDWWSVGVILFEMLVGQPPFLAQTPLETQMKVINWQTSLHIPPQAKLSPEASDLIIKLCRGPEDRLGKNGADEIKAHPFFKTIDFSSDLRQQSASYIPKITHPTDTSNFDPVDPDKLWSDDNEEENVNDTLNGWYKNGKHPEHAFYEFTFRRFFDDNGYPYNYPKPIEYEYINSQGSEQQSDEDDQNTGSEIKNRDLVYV

[4] = biological target: RFP-Angiomotin, Q4VCS5; test: pull-down; details: remark: other sources report otherwise
[5] = biological target: T2, RFP-Lats1; test: co-IP
[6] = biological target: RFP-Angiomotin, Q4VCS5; test: co-IP; details: remark: other sources report otherwise
[7] = biological target: T1, RFP-ASPP2; test: pull-down; remark: listed apart in the source

Sequence of RFP-Angiomotin, Q4VCS5 (Q4VCS5 whole entry): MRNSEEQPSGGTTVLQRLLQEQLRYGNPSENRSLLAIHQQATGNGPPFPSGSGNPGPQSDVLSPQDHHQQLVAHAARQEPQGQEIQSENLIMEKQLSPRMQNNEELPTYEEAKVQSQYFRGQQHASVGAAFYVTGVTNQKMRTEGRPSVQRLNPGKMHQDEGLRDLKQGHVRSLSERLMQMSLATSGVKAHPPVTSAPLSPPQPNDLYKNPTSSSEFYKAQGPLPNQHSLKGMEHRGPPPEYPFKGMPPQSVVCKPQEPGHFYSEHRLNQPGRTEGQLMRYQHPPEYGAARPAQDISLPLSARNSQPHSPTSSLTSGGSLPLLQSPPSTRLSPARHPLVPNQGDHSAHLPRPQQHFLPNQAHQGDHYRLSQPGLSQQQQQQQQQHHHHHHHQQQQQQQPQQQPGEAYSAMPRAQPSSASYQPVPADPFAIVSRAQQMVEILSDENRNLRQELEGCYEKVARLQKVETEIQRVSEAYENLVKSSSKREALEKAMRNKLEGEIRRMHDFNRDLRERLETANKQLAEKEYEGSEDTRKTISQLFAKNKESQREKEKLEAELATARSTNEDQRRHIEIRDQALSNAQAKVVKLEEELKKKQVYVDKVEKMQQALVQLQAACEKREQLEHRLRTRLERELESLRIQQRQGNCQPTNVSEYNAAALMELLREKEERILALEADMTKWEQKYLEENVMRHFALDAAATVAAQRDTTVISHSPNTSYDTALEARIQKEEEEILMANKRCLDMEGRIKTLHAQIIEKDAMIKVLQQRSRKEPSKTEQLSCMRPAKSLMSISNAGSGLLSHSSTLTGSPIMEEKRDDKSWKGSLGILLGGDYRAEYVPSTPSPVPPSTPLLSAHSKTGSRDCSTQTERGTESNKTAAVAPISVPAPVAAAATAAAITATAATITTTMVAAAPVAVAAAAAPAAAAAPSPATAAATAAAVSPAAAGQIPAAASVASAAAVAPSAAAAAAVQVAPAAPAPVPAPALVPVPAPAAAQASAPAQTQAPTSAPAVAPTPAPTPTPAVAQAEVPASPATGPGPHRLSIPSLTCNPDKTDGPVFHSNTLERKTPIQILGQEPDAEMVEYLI

B1: Merlin-NLuc (natural protein, UniProt P35240 1-595, looked up)
chain: MAGAIASRMSFSSLKRKQPKTFTVRIVTMDAEMEFNCEMKWKGKDLFDLVCRTLGLRETWFFGLQYTIKDTVAWLKMDKKVLDHDVSKEEPVTFHFLAKFYPENAEEELVQEITQHLFFLQVKKQILDEKIYCPPEASVLLASYAVQAKYGDYDPSVHKRGFLAQEELLPKRVINLYQMTPEMWEERITAWYAEHRGRARDEAEMEYLKIAQDLEMYGVNYFAIRNKKGTELLLGVDALGLHIYDPENRLTPKISFPWNEIRNISYSDKEFTIKPLDKKIDVFKFNSSKLRVNKLILQLCIGNHDLFMRRRKADSLEVQQMKAQAREEKARKQMERQRLAREKQMREEAERTRDELERRLLQMKEEATMANEALMRSEETADLLAEKAQITEEEAKLLAQKAAEAEQEMQRIKATAIRTEEEKRLMEQKVLEAEVLALKMAEESERRAKEADQLKQDLQEAREAERRAKQKLLEIATKPTYPPMNPIPAPLPPDIPSFNLIGDSLSFDFKDTDMKRLSMEIEKEKVEYMEKSKHLQEQLNELKTEIEALKLKERETALDILHNENSDRGGSSKHNTIKKLTLQSAKSRVAFFEEL
fold over the negative control (RFP alone), bound luciferase [2]: 125 fold
fold over the negative control (RFP alone), bound luciferase [3]: 268 fold
fold over the negative control (RFP alone), bound luciferase [4]: 2300 fold
fold over the negative control (RFP alone), co-precipitated luciferase [5]: > 20 fold
fold over the negative control (RFP alone), co-precipitated luciferase [6]: 100 fold

B2: Merlin S518A (natural protein, UniProt P35240 1-595, looked up)
chain: MAGAIASRMSFSSLKRKQPKTFTVRIVTMDAEMEFNCEMKWKGKDLFDLVCRTLGLRETWFFGLQYTIKDTVAWLKMDKKVLDHDVSKEEPVTFHFLAKFYPENAEEELVQEITQHLFFLQVKKQILDEKIYCPPEASVLLASYAVQAKYGDYDPSVHKRGFLAQEELLPKRVINLYQMTPEMWEERITAWYAEHRGRARDEAEMEYLKIAQDLEMYGVNYFAIRNKKGTELLLGVDALGLHIYDPENRLTPKISFPWNEIRNISYSDKEFTIKPLDKKIDVFKFNSSKLRVNKLILQLCIGNHDLFMRRRKADSLEVQQMKAQAREEKARKQMERQRLAREKQMREEAERTRDELERRLLQMKEEATMANEALMRSEETADLLAEKAQITEEEAKLLAQKAAEAEQEMQRIKATAIRTEEEKRLMEQKVLEAEVLALKMAEESERRAKEADQLKQDLQEAREAERRAKQKLLEIATKPTYPPMNPIPAPLPPDIPSFNLIGDSLSFDFKDTDMKRLAMEIEKEKVEYMEKSKHLQEQLNELKTEIEALKLKERETALDILHNENSDRGGSSKHNTIKKLTLQSAKSRVAFFEEL
fold greater than binding to wild-type Merlin [7]: ~2 fold

Next, values leading:

fold over the negative control (RFP alone), co-precipitated luciferase [1]: 2 fold and 5 fold
Molecule: Merlin-NLuc (from UniProt P35240 1-595) (natural protein)

fold less than binding to wild-type Merlin [7]: > 2 fold
B3: Merlin S518D (natural protein, UniProt P35240 1-595, looked up)
chain: MAGAIASRMSFSSLKRKQPKTFTVRIVTMDAEMEFNCEMKWKGKDLFDLVCRTLGLRETWFFGLQYTIKDTVAWLKMDKKVLDHDVSKEEPVTFHFLAKFYPENAEEELVQEITQHLFFLQVKKQILDEKIYCPPEASVLLASYAVQAKYGDYDPSVHKRGFLAQEELLPKRVINLYQMTPEMWEERITAWYAEHRGRARDEAEMEYLKIAQDLEMYGVNYFAIRNKKGTELLLGVDALGLHIYDPENRLTPKISFPWNEIRNISYSDKEFTIKPLDKKIDVFKFNSSKLRVNKLILQLCIGNHDLFMRRRKADSLEVQQMKAQAREEKARKQMERQRLAREKQMREEAERTRDELERRLLQMKEEATMANEALMRSEETADLLAEKAQITEEEAKLLAQKAAEAEQEMQRIKATAIRTEEEKRLMEQKVLEAEVLALKMAEESERRAKEADQLKQDLQEAREAERRAKQKLLEIATKPTYPPMNPIPAPLPPDIPSFNLIGDSLSFDFKDTDMKRLDMEIEKEKVEYMEKSKHLQEQLNELKTEIEALKLKERETALDILHNENSDRGGSSKHNTIKKLTLQSAKSRVAFFEEL
